Source: patent US20230203177A1 (Bristol-Myers Squibb, published 2023)

Tests used:
[1] = molecular target: T1, soluble human CD40 extracellular domain (human, UniProt P25942 21-193); assay: SPR, Ab captured from supernatant on protein A, hCD40 ECD analyte; antibody captured out of supernatant
T1 construct: Produced in house; also called hCD40; soluble hCD40 extracellular domain
Description: The titer data (Table 21) were used to normalize the antibody concentration in each supernatant to 3 μg/ml, and these antibodies were captured out of the supernatants on a protein A CMS Series S sensor chip (GE Healthcare), and tested for binding to two concentrations (5 nM and 50 nM) of soluble hCD40 extracellular domain.
(§1) CD40 binding SPR of antibody supernatants: Surface plasmon resonance (SPR) studies were conducted on a BIAcore™ T200 instrument (GE Healthcare, Chicago Ill.). A Series S Protein A sensor chip (GE Healthcare, Chicago Ill.) was equilibrated with SPR running buffer of 10 mM NaPO₄, 130 mM NaCl, 0.05% tween 20, (PBS-T) pH 7.2 at 25° C. The 96 antibody supernatants were normalized to a concentration of 3 μg/ml by diluting with PBS-T using a PerkinElmer JANUS® G3 system (PerkinElmer, Akron, Ohio). After priming the system, the 3 μg/ml antibody samples were captured on the protein A surface for 30 s at 10 μl/min Binding of 50 nM and 500 nM human CD40 extracellular domain (produced in house) was evaluated using association time of 180 s at 30 μl/min, followed by a dissociation time of 180 s at 30 μl/min Regeneration between cycles was accomplished using two 15 s injections of 10 mM glycine pH 1.5. […] Data were analyzed using BIAcore™ T200 evaluation software by fitting to a 1:1 Langmuir model.

[2] = molecular target: T1, soluble human CD40 extracellular domain; assay: SPR, purified Ab on protein A chip, soluble hCD40 ECD analyte, Fc3-1, n=3 global fit
[3] = molecular target: T1, soluble human CD40 extracellular domain; assay: SPR, purified Ab on protein A chip, soluble hCD40 ECD analyte, Fc4-1, n=3 global fit
Description: as §1, with “A” for “CD40 binding SPR of antibody supernatants: Surface plasmon resonance (SPR) studies were conducted on a BIAcore™ T200 instrument (GE Healthcare, Chicago Ill.). A”, “The 96 antibody supernatants were normalized to a concentration of 3 μg/ml by diluting with PBS-T using a PerkinElmer JANUS® G3 system (PerkinElmer, Akron, Ohio).” left out

[4] = molecular target: T1, soluble human CD40 extracellular domain; assay: SPR, purified Ab on protein A, 6 concentrations of hCD40 ECD, mean of 3
Description: (§2) Additionally, to more accurately define the dissociation rate (kd), a longer dissociation time of 360 seconds (s) was used as opposed to the shorter 180 s dissociation that had been used in the supernatant screening experiment.
(§3) CD40 binding SPR: SPR studies of the purified antibodies were conducted on BIAcore™ T200 instrument (GE Healthcare, Chicago Ill.). A Series S Protein A sensor chip (GE Healthcare, Chicago Ill.) was equilibrated with SPR running buffer of 10 mM NaPO₄, 130 mM NaCl, 0.05% tween 20, (PBS-T) pH 7.2 at 25° C. The purified antibody samples were diluted to 3 μg/ml in PBS-T and captured on the protein A surface for 30 s at 10 μl/min Binding of 3.91, 7.81, 15.6, 31.3, 62.5, and 125 nM human CD40 extracellular domain (produced in house) was evaluated using association time of 180 s at 30 μl/min, followed by a dissociation time of 360 s at 30 μl/min Regeneration between cycles was accomplished using two 15 s injections of 10 mM glycine pH 1.5. […] Data were analyzed using BIAcore™ T200 evaluation software by fitting to a 1:1 Langmuir model.

[5] = molecular target: T1, soluble human CD40 extracellular domain; assay: SPR, purified Ab on protein A, 6 concentrations of hCD40 ECD, mean of 3; purified antibody, mean of three measurements
Description: as §2, §3

[6] = molecular target: T1, soluble human CD40 extracellular domain; assay: SPR, purified Ab on protein A chip, soluble hCD40 ECD analyte, Fc2-1, n=3 global fit
Description: as §1, with “A” for “CD40 binding SPR of antibody supernatants: Surface plasmon resonance (SPR) studies were conducted on a BIAcore™ T200 instrument (GE Healthcare, Chicago Ill.). A”, “The 96 antibody supernatants were normalized to a concentration of 3 μg/ml by diluting with PBS-T using a PerkinElmer JANUS® G3 system (PerkinElmer, Akron, Ohio).” left out

[7] = molecular target: human CD40 on primary human tonsillar B cells (human, UniProt P25942 21-277); assay: cell-based or functional assay
human CD40 on primary human tonsillar B cells, sequence (P25942 21-277 limits assumed): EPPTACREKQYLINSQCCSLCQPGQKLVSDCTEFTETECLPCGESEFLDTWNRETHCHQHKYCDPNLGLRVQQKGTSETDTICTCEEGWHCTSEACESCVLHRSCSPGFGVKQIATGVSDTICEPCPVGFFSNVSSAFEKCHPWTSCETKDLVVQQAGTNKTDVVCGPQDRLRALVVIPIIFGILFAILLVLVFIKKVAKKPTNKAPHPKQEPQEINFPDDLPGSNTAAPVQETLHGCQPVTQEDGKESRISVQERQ

T1 sequence (P25942 21-193 limits assumed): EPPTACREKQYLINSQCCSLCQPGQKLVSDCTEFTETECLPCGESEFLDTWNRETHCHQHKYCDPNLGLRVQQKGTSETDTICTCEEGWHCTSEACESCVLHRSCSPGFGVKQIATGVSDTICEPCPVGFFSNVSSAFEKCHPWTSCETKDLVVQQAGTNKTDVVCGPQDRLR

B1: BMS-986325 (antibody, human IgG1, kappa)
heavy: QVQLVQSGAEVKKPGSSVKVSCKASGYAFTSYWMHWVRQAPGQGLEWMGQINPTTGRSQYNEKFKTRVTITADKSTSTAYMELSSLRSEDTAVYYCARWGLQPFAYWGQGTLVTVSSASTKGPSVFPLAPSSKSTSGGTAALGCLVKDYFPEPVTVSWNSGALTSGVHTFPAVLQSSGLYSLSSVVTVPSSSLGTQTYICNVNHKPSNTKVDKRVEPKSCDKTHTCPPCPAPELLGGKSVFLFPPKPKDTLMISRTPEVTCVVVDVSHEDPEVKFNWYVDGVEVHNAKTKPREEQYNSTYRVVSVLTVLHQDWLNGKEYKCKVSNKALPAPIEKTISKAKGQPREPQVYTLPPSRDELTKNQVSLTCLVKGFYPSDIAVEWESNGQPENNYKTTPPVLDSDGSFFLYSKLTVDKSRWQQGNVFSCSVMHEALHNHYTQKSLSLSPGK
light: DIQMTQSPSFLSASVGDRVTITCKASQDVSTAVAWYQQKPGKAPKLLIYSASYRYTGVPSRFSGSGSGTDFTLTISSLQPEDFATYYCQQHYSTPWTFGGGTKVEIKRTVAAPSVFIFPPSDEQLKSGTASVVCLLNNFYPREAKVQWKVDNALQSGNSQESVTEQDSKDSTYSLSSTLTLSKADYEKHKVYACEVTHQGLSSPVTKSFNRGEC
notes: IgG1-P238K; purified lots and supernatant M1 treated as one molecule; also called M1 (wt); Y12XX-hz28
- Kd [1]: 4.2 nM
- Kd [2]: 4.5 nM
- koff [2]: 0.00091 s⁻¹
- kon [2]: 200000 M⁻¹ s⁻¹
- Kd [3]: 4.4 nM
- koff [3]: 0.00091 s⁻¹
- kon [3]: 210000 M⁻¹ s⁻¹
- Kd [4]: 3.1 nM
- koff [4]: 0.00066 s⁻¹
- kon [5]: 220000 M⁻¹ s⁻¹
- Kd [6]: 4.4 nM
- koff [6]: 0.00087 s⁻¹
- kon [6]: 200000 M⁻¹ s⁻¹
- IC50, inhibition of tonsillar human B cell proliferation stimulated by IZ-hCD40L trimer (BMS-986325-WT P1-071223-1 lot 1) [7]: 0.0012 µg/mL
- IC50, inhibition of tonsillar human B cell proliferation stimulated by IZ-hCD40L trimer (BMS-986325-WT P1-071223-3 lot 3) [7]: 0.0056 µg/mL
- IC50, inhibition of tonsillar human B cell proliferation stimulated by IZ-hCD40L trimer (BMS-986325 P1-073346-1) [7]: 0.0014 µg/mL
- IC50, inhibition of tonsillar human B cell proliferation stimulated by hCD40L expressing CHO cells (BMS-986325-WT P1-071223-1 lot 1) [7]: 0.042 µg/mL
- IC50, inhibition of tonsillar human B cell proliferation stimulated by hCD40L expressing CHO cells (BMS-986325-WT P1-071223-3 lot 3) [7]: 0.0314 µg/mL
- IC50, inhibition of tonsillar human B cell proliferation stimulated by hCD40L expressing CHO cells (BMS-986325 P1-073346-1) [7]: 0.047 µg/mL
